Test results: the supplement of paper PMC10567573

B1: CDC25B (parent)
chain: KSPIAPCSLDKRVILIFHCEFSSE

Variants of: B1
Assay: protein stability index of a GFP-peptide fusion (GPS, HEK-293T) (PSI 1-6); higher = more stable
Settings: c terminus: a fixed tail appended
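Further: lentivirally expressed fusions sorted by FACS into six bins by GFP to DsRed ratio, PSI derived from sequencing read proportions per bin multiplied by bin number.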

Protein stability index of substitutions, site by site:
R12: G 2.23 | N 2.76 | I 3.03 | M 2.89 | D 3.43 | K 3.98 | L 3.04 | H 2.79 | Y 3.38 | S 4.14 | F 5.41 | P 2.66
I14: F 2.94 | Q 1.1 | V 2.87 | N 1.96 | A 2.65 | P 2.25 | M 2.35 | R 1.79 | D 2.54 | S 1.94 | C 1.54 | T 2.1 | G 1.56 | E 2.07 | L 1.95 | H 3.76
C7: V 3.75 | M 2.15 | S 2.13 | N 2.54 | R 3.39 | P 2.65 | Q 2.01 | T 2.55
V13: S 3.15 | K 1.32 | H 1.85 | Y 2.97 | L 2.5 | T 2.89 | W 4.17 | F 2.29 | P 1.49 | C 1.21 | Q 1.42 | G 1.14 | E 1.45 | N 1.61 | A 3.2 | I 3.36 | D 2.51 | R 3.12
D10: S 2.26 | T 3.32 | I 2.12 | Y 1.66 | W 2.94 | V 2.67 | H 2.05 | G 2.74 | F 2.42 | C 2.23 | M 2.48 | P 3.83 | Q 1.71 | A 2.95
L15: K 1.42 | H 1.05 | E 1.83 | T 1.8 | Q 1.84 | M 2.88 | N 2.21 | P 2.28 | S 1.86 | G 1.39 | F 2.88 | Y 2.66 | I 3.49 | D 2.38 | R 1.71 | A 2.68
I16: D 2.92 | W 1.05 | H 1.68 | T 2.18 | M 2.25 | P 3.02 | V 1.06 | S 2.01 | A 1.52 | K 1.39 | C 2.93 | E 1.07 | Y 2.91 | L 1.38 | Q 1.52 | G 1.4 | N 2.54 | R 2.5
H18: K 2.45 | M 1.88 | A 3.34 | C 3.24 | F 3.53 | G 2.81 | I 1.86 | D 3.1
K11: V 4.34 | P 3.23 | Y 2.32 | C 2.52 | L 2.35 | F 2.69 | Q 2.16 | M 2.9 | I 3.79 | H 2.1
F17: A 1.92 | M 1.66 | I 2.47 | T 1.8 | N 2.54 | H 1.64 | Q 2.44 | R 1.69 | D 3.13 | S 1.8 | V 4.17 | C 2.19 | E 2.76 | K 2.33 | P 2.36 | G 1.39
S8: D 2.31 | M 2.28 | T 4.2 | I 2.17 | A 3.52 | G 3.16 | K 2.88 | E 1.45 | F 2.12 | L 1 | C 3 | V 2.5 | W 1.81 | H 3.03
L9: C 2.46 | A 2.62 | Q 2.42 | K 2.39 | I 4.08 | V 2.37 | N 2.78 | R 3.58 | D 2.66 | P 3.63 | S 2.4 | F 2.64 | M 2.53 | G 2.92 | Y 3.94 | W 2.9 | T 2.22
